The values below come from patent publication US20220119534A1 (DRAGONFLY THERAPEUTICS, published 2022).

Assay [1] addresses T1, mFc-hNKG2D (human, UniProt P26718 73-216).
T1 construct: extracellular domain; Made in house (Dragonfly Tx); the order of tag and ECD follows the name mFc-hNKG2D; also called mFc-tagged human NKG2D; not shown: mouse Fc tag
T1 sequence (looked up): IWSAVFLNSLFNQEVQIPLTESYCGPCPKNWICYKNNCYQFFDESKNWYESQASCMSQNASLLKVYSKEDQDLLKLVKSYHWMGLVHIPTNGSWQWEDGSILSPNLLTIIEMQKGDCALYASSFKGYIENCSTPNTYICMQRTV
Description: SPR Biacore 8K 37 C; mFc-hNKG2D captured on anti-mFc chip, TriNKET as analyte; 1:1 kinetic fit; after 4 wks 40 C in phosphate/citrate/NaCl pH 7.8, n=2. Background: In SPR one partner is held on a chip, and binding of the other changes the refractive index at the surface.

Another assay addresses T2, mFc-cNKG2D (cynomolgus monkey, UniProt P61252 73-216).
T2 construct: extracellular domain; Made in house (Dragonfly Tx); also called recombinant cyno NKG2D extracellular domain (ECD); mFc-tagged cyno NKG2D dimer; not shown: mouse Fc tag
T2 sequence (looked up): T1 sequence (looked up) with D43N, T133I
Briefly: SPR Biacore 37 C; mFc-tagged cyno NKG2D dimer, TriNKET as analyte; 1:1 kinetic fit; average of 4.

The target of assay [2] is T1, mFc-hNKG2D. Briefly: SPR Biacore 8K 37 C; mFc-hNKG2D captured on anti-mFc chip, TriNKET as analyte; 1:1 kinetic fit.
A further assay has as its target T3, Human CLEC12A-His (human, UniProt Q5QGZ9 65-265).
T3 construct: Recombinant soluble protein made in house (Dragonfly Tx); The hCLEC12A spot of the HuProt array is written under this molecule as well; also called hCLEC12A-His; hCLEC12A; not shown: His tag
T3 sequence: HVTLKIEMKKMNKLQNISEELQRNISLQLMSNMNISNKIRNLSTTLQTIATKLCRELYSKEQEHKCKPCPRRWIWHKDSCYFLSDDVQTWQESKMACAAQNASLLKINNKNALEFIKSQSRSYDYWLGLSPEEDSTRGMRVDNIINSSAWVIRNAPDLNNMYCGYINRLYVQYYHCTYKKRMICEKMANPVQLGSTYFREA
Briefly: SPR Biacore 8K 37 C; TriNKET captured on anti-hFc chip, hCLEC12A-His as analyte; 1:1 fit; pH 5.0 control, n=2.

For assay [3], the target named is T4, human CLEC12A on cells (HL60, PL21, Ba/F3-hCLEC12A) (human, UniProt Q5QGZ9 1-265).
T4 construct: Endogenous on the AML lines HL60 and PL21; brought into mouse Ba/F3 cells by retroviral transduction; The cell line stands under assay; also called CLL-1
T4 sequence: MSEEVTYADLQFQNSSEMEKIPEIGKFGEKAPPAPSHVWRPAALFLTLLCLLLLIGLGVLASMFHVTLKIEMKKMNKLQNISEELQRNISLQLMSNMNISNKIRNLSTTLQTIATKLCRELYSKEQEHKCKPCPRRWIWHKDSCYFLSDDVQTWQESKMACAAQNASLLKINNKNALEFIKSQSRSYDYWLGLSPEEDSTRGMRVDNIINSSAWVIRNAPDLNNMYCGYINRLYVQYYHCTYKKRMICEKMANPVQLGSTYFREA
Description: flow cytometry, Ba/F3-hCLEC12A cells.

For assay [4], the target named is T5, Human CLEC12A-His (recombinant, K244 WT) (human, UniProt Q5QGZ9 65-265).
T5 construct: Made in house (Dragonfly Tx); also called hCLEC12A; hCLEC12A-His; not shown: His tag
T5 sequence: T3 sequence
Description: SPR, two-state fit (kd1); fully purified protein after low pH hold.

The target in assay [5] is T6, De-glycosylated human CLEC12A (human, UniProt Q5QGZ9 65-265, treated with PNGaseF (N-linked glycans removed)).
T6 construct: Same recombinant antigen as m2 after PNGaseF; also called De-glycosylated CLEC12A
T6 sequence: T3 sequence
Briefly: SPR, two-state fit (ka1).

The target in assay [6] is T7, De-sialylated human CLEC12A (human, UniProt Q5QGZ9 65-265, treated with neuraminidase (terminal sialic acids removed)).
T7 construct: Same recombinant antigen as m2 after neuraminidase; also called De-sialylated CLEC12A
T7 sequence: T3 sequence
Briefly: SPR, two-state fit (ka1).

For assay [7], the target named is T8, mFc-hNKG2D (recombinant mFc-tagged human NKG2D dimer) (human, UniProt P26718 73-216).
T8 construct: extracellular domain; Made in house; not shown: mouse Fc tag
T8 sequence (looked up): T1 sequence (looked up)
Briefly: SPR; control sample.

For assay [8], the target named is T9, Human CD16a V158 (FcγRIIIa V158) (human, UniProt P08637 17-208, biotinylated).
T9 construct: Bought recombinant receptor; also called hCD16aV; hFcγRIIIa V158
T9 sequence (P08637 17-208 F176V limits assumed): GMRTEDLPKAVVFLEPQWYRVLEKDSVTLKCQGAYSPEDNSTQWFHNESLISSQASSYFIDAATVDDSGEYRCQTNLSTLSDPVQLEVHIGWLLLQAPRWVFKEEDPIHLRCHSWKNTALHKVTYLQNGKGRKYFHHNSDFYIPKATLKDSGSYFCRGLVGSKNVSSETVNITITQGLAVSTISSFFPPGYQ
Briefly: SPR; control sample.

For assay [9], the target named is T10, Human CLEC12A expressed on cells (Ba/F3-hCLEC12A, PL21, HL60) (human, UniProt Q5QGZ9 1-265).
T10 construct: Ba/F3 cells transduced with human CLEC12A; PL21 and HL60 AML lines express it endogenously; also called cell surface expressed CLEC12A
T10 sequence: T4 sequence
Description: flow cytometry on HL-60 AML cells. In general terms: In flow cytometry, cells or beads pass a laser one at a time.

The target in assay [10] is T8, mFc-hNKG2D (recombinant mFc-tagged …). Description: SPR; after pH 8, 40C, 2 wks (n = 2).
The target in another assay is T11, Human CD64 (FcγRI) (human, UniProt P12314 16-288, biotinylated).
T11 construct: Bought recombinant receptor; also called hFcγRI; Human FcγRI
T11 sequence (P12314 16-288 limits assumed): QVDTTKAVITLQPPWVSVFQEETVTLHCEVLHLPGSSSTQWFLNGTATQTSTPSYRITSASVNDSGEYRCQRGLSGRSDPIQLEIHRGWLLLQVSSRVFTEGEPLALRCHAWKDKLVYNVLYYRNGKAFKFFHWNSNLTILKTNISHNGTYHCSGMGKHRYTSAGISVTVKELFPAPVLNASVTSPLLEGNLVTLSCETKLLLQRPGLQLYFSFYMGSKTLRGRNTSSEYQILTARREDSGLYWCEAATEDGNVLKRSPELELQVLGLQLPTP
Description: SPR 25C, biotinylated hCD64 captured on CAP chip.

The target in assay [11] is T12, human CLEC12A expressed on cells (human, UniProt Q5QGZ9 1-265).
T12 construct: Transduced isogenic cells or endogenous expression on AML cells; also called RMA-hCLEC12A; Ba/F3-hCLEC12A
T12 sequence: T4 sequence
Briefly: flow cytometry, HL60.

Where a chain is given by its changes, count along the chain named. Numbers in names are those of the source. Where “and” joins values, the source holds several entries; their conditions need not be identical. Identical values can stand only once.

B1: F3'-1602 TriNKET (bispecific antibody, human IgG1, kappa)
chain: QLQLQESGPGLVKPSETLSLTCTVSGFSLTNYGLHWIRQPPGKCLEWIGVIWSGGKTDYNPSLKSRVTISKDTSKNQFSLKLSSVQAADTAVYYCAKYDYDDSLDYWGQGTLVTVSSGGGGSGGGGSGGGGSGGGGSDIQMTQSPSSLSASVGDRVTITCHASQNINFWLSWYQQKPGKAPKLLIYEASNLHTGVPSRFSGSGSGTRFTLTISSLQPEDIATYYCQQSHSYPLTFGCGTKLEIKGSDKTHTCPPCPAPELLGGPSVFLFPPKPKDTLMISRTPEVTCVVVDVSHEDPEVKFNWYVDGVEVHNAKTKPREEQYNSTYRVVSVLTVLHQDWLNGKEYKCKVSNKALPAPIEKTISKAKGQPREPRVYTLPPCRDELTKNQVSLTCLVKGFYPSDIAVEWESNGQPENNYKTTPPVLVSDGSFTLYSKLTVDKSRWQQGNVFSCSVMHEALHNHYTQKSLSLSPG
heavy: EVQLVESGGGLVKPGGSLRLSCAASGFTFSSYSMNWVRQAPGKGLEWVSSISSSSSYIYYADSVKGRFTISRDNAKNSLYLQMNSLRAEDTAVYYCARGAPIGAAAGWFDPWGQGTLVTVSSASTKGPSVFPLAPSSKSTSGGTAALGCLVKDYFPEPVTVSWNSGALTSGVHTFPAVLQSSGLYSLSSVVTVPSSSLGTQTYICNVNHKPSNTKVDKKVEPKSCDKTHTCPPCPAPELLGGPSVFLFPPKPKDTLMISRTPEVTCVVVDVSHEDPEVKFNWYVDGVEVHNAKTKPREEQYNSTYRVVSVLTVLHQDWLNGKEYKCKVSNKALPAPIEKTISKAKGQPREPQVCTLPPSRDELTENQVSLTCLVKGFYPSDIAVEWESNGQPENNYKTTPPVLDSDGSFFLYSWLTVDKSRWQQGNVFSCSVMHEALHNHYTQKSLSLSPG
light: DIQMTQSPSSVSASVGDRVTITCRASQGISSWLAWYQQKPGKAPKLLIYAASSLQSGVPSRFSGSGSGTDFTLTISSLQPEDFATYYCQQGVSFPRTFGGGTKVEIKRTVAAPSVFIFPPSDEQLKSGTASVVCLLNNFYPREAKVQWKVDNALQSGNSQESVTEQDSKDSTYSLSSTLTLSKADYEKHKVYACEVTHQGLSSPVTKSFNRGEC
notes: Trispecific F3' format: CLEC12A scFv-Fc paired with NKG2D Fab-Fc; Stressed and control samples of the stability studies are the same molecule; also called AB0237
One may read the Kd as the concentration at which binding is half-saturated. By koff is commonly meant a measure of how fast the partners let go of each other. As usually defined, the kon is a measure of how fast the partners come together. For the molecule B1, the Kd turned out to be 869 nM with mFc-hNKG2D [1] and 1.07 nM with Human CLEC12A-His. Also, the dissociation rate constant (koff) with mFc-hNKG2D [1] is 0.133 s⁻¹; in the assay with mFc-cNKG2D, 0.141 s⁻¹; with mFc-hNKG2D [2], 0.126 s⁻¹ and 0.13 s⁻¹ and 0.131 s⁻¹ and 0.132 s⁻¹; in the assay with Human CLEC12A-His it was 0.000853 s⁻¹. Further, the kon in the assay with mFc-hNKG2D [1] was 153000 M⁻¹ s⁻¹; with mFc-cNKG2D it was 168000 M⁻¹ s⁻¹; with mFc-hNKG2D [2] it was 180000 M⁻¹ s⁻¹ and 184000 M⁻¹ s⁻¹ and 175000 M⁻¹ s⁻¹; with Human CLEC12A-His, 799000 M⁻¹ s⁻¹.

B2: AB0192 TriNKET (other)
chain: EVQLVESGGGVVQPGGSLRLSCAASGFTFNAFGMHWVRQAPGKCLEWVAFISSGSTSIYYANTVKGRFTISRDNSKNTLYLQMNSLRAEDTAVYYCARDGYPTGGAMDYWGQGTSVTVSSGGGGSGGGGSGGGGSGGGGSDIQMTQSPSSLSASVGDRVTITCKASQDIYNYLSWFQQKPGKAPKPLIYRANILVSGVPSRFSGSGSGQDYTFTISSLQPEDIATYYCLQFDAFPFTFGCGTKLEIKGSDKTHTCPPCPAPELLGGPSVFLFPPKPKDTLMISRTPEVTCVVVDVSHEDPEVKFNWYVDGVEVHNAKTKPREEQYNSTYRVVSVLTVLHQDWLNGKEYKCKVSNKALPAPIEKTISKAKGQPREPRVYTLPPCRDELTKNQVSLTCLVKGFYPSDIAVEWESNGQPENNYKTTPPVLVSDGSFTLYSKLTVDKSRWQQGNVFSCSVMHEALHNHYTQKSLSLSPG
heavy: B1 heavy
light: B1 light
notes: the condition stands under assay; also called AB0192 Lot AB0192-005
In general, EC50 refers to the concentration giving half of the maximal effect. A low value points to greater potency. In the case of B2, the EC50 in assay [3] turned out to be 0.91 nM.

B3: AB0089 TriNKET (bispecific antibody, human IgG1, kappa)
chain: B1 chain with S53V, K56A, K71V, Y98G, D101G, S103T, R207D, I220F
heavy: B1 heavy
light: B1 light
notes: F3' format heterodimer of three chains; human IgG1 Fc with EW-RVT and Y349C/S354C mutations; also called AB0089 Lot AB0089-002; CLEC12A TriNKET AB0089
Turning to B3, the dissociation rate constant (koff) is 0.0276 s⁻¹ in [4]; 0.135 s⁻¹ in [7]; 0.0278 s⁻¹ in [8]; 0.127 s⁻¹ in assay [10]; 0.00018 s⁻¹ and 0.00022 s⁻¹ and 0.00019 s⁻¹ and 0.00024 s⁻¹ with Human CD64 (FcγRI). Further, the on-rate (kon) was 8.96e+06 M⁻¹ s⁻¹ in assay [5]; 2.09e+07 M⁻¹ s⁻¹ in assay [6]; 169000 M⁻¹ s⁻¹ in [7]; 86400 M⁻¹ s⁻¹ in assay [8]; 130000 M⁻¹ s⁻¹ in assay [10]; 44000 M⁻¹ s⁻¹ and 46000 M⁻¹ s⁻¹ in the assay with Human CD64 (FcγRI). The dissociation constant Kd in [7] was 797 nM; in [8] it was 322 nM; in assay [10] it was 983 nM; in the assay with Human CD64 (FcγRI) it was 6.4 nM and 4.7 nM and 4.1 nM and 5.2 nM. This molecule also returned an EC50 in [9] of 0.74 nM.

B4: F3'-1602 TriNKET (other)
chain: B1 chain
heavy: B1 heavy
light: B1 light
notes: CLEC12A scFv-Fc, NKG2D A49MI Fab-Fc, human IgG1 Fc; also called AB0237
The molecule B4 had a concentration for a half-maximal effect (EC50) in assay [11] of 2.2 nM.
